Earlier results as cited in article PMC2814318.

Columns and labels:
[1] = biological target: CaV β2a subunit (Rattus norvegicus) (UniProt Q8VGC3)
[2] = biological target: CaV β1b subunit (Rattus norvegicus) (UniProt P54283)
Sequence of CaV β1b subunit (Rattus norvegicus) (P54283 whole entry): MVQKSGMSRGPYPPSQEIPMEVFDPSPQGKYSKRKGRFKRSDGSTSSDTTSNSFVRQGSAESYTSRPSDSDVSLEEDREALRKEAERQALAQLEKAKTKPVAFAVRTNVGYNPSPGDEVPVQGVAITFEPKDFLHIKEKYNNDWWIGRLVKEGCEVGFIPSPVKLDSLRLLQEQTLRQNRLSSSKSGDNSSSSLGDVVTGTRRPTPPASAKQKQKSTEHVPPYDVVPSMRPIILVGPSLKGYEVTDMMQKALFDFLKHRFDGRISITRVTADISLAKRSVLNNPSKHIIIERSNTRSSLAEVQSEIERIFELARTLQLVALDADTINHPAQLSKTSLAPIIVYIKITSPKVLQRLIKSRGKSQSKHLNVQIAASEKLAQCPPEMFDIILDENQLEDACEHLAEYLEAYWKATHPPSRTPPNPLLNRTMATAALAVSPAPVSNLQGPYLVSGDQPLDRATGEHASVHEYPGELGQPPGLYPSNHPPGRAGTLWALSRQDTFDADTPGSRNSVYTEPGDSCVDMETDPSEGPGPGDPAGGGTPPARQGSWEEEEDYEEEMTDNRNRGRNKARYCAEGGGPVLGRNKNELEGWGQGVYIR

Sequence of CaMKIIδ (P15791 2-533, stated change not applied): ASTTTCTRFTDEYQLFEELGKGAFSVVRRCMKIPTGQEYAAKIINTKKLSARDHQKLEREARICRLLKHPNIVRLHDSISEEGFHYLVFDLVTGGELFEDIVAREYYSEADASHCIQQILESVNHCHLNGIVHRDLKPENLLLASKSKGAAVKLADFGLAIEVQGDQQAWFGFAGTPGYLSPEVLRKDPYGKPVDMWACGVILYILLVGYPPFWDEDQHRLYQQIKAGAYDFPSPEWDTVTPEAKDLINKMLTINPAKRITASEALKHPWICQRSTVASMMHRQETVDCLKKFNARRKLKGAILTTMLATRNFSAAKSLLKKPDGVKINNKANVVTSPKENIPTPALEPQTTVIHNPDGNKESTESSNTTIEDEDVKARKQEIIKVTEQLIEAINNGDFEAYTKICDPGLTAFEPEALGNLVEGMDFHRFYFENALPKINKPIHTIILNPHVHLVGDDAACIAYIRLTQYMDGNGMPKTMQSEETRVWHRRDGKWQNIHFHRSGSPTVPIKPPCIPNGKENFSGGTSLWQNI

Substance: CaMKIIδ (from UniProt P15791)
- Kd [1]: 100 nM
- Kd [2]: 100 nM
